The text below walks through data of article PMC7547085, “Specific and direct modulation of the interaction between adhesion GPCR GPR56/ADGRG1 and tissue transglutaminase 2 using synthetic ligands” (Scientific Reports, 2020).

Sequences and labels used below:
B1: mouse tissue transglutaminase 2 C-terminal D3D4 domains (mTG2 D3D4) [modified: biotin on the AVI-tag; biotin on the AVI-tag] [mouse] / mouse full-length GPR56 (GPR56 FL), wild type, on HEK293T cells [mouse] (parent complex)
chain 1: TGVAMRIRVGDSMSMGNDFDVFAHIGNDTSETRECRLLLCARTVSYNGVLGPECGTEDINLTLDPYSENSIPLRILYEKYSGCLTESNLIKVRGLLIEPAANSYLLAERDLYLENPEIKIRVLGEPKQNRKLVAEVSLKNPLSDPLYDCIFTVEGAGLTKEQKSVEVSDPVPAGDLVKARVDLFPTDIGLHKLVVNFQCDKLKSVKGYRNVIIGPA
chain 2: GSPREDFRFCGQRNQTQQSTLHYDQSSEPHIFVWNTEETLTIRAPFLAAPDIPRFFPEPRGLYHFCLYWSRHTGRLHLRYGKHDYLLSSQASRLLCFQKQEQSLKQGAPLIATSVSSWQIPQNTSLPGAPSFIFSFHNAPHKVSHNASVDMCDLKKELQQLSRYLQHPQKAAKRPTAAFISQQLQSLESKLTSVSFLGDTLSFEEDRVNATVWKLPPTAGLEDLHIHSQKEEEQSEVQAYSLLLPRAVFQQTRGRRRDDAKRLLVVDFSSQALFQDKNSSQVLGEKVLGIVVQNTKVTNLSDPVVLTFQHQPQPKNVTLQCVFWVEDPASSSTGSWSSAGCETVSRDTQTSCLCNHLTYFAVLMVSSTEVEATHKHYLTLLSYVGCVISALACVFTIAAYLCSRRKSRDYTIKVHMNLLSAVFLLDVSFLLSEPVALTGSEAACRTSAMFLHFSLLACLSWMGLEGYNLYRLVVEVFGTYVPGYLLKLSIVGWGFPVFLVTLVALVDVNNYGPIILAVRRTPERVTYPSMCWIRDSLVSYVTNLGLFSLVFLFNLAMLATMVVQILRLRPHSQNWPHVLTLLGLSLVLGLPWALVFFSFASGTFQLVILYLFSIITSFQGFLIFLWYWSMRFQAQGGPSPLKNNSDSAKLPISSGSTSSSRI

The test covers variants of B1. In words: flow cytometry on cells; 5 nM TG2 D3D4 (tetramerized); GPR56 FL constructs expressed on HEK293T cells; n = 3; parent: 1; read off a plot. Background: Flow cytometry measures light scatter and fluorescence of single cells or particles in a stream.
For chain 2 R8E, the ratio to parent was approximately 4.7.
Regarding chain 2 A112R, chain 2 S114R, the ratio to parent was approximately 5.3.
The result for chain 2 R79D reads approximately 0.27.
As for chain 2 Q12A, the figure is approximately 0.69.
